# What was measured:
# Experiment in all cases: purified protein
# Settings in all cases: O2 co-substrate, pH 7.5 sodium phosphate 50 mM, 35 °C
# [1] = test system: COc1ccc(CO)cc1OC
# [2] = test system: O=Cc1ccc(CO)o1
# [3] = test system: O=Cc1ccc(C=O)o1
# [4] = test system: O=C(O)c1ccc(CO)o1
substance,measurement,setting,value
FoxAAO (Fusarium oxysporum f. sp. lycopersici 4287),Km,[1],3.0 ± 0.24 mM
same,kcat,[1],25 ± 1.2 s⁻¹
same,kcat/Km,[1],8300 M⁻¹ s⁻¹
same,Km,[2],17 ± 4.9 mM
same,Km,[3],3.7 ± 1.0 mM
same,kcat,[3],1.4 ± 0.13 s⁻¹
same,kcat/Km,[3],380 M⁻¹ s⁻¹
same,Km,[4],3.1 ± 0.31 mM
same,kcat,[4],5.2 ± 0.14 s⁻¹
same,kcat/Km,[4],1700 M⁻¹ s⁻¹

# Source: PMC8207647
